Assay results taken from patent US20200262877A1, “ION CHANNEL-BINDING PEPTIDES AND METHODS OF USE THEREOF” (priority 2017, published 2020).

How the values were obtained:
5HT3a = target: T1, 5HT3a (Homo sapiens, UniProt P46098); experiment: Ion channel panel (IonWorks Barracuda): 5HT3a; format: cell-based
T1 construct: host or cells: HEK293 or CHO
T1 sequence (P46098 whole entry, looked up): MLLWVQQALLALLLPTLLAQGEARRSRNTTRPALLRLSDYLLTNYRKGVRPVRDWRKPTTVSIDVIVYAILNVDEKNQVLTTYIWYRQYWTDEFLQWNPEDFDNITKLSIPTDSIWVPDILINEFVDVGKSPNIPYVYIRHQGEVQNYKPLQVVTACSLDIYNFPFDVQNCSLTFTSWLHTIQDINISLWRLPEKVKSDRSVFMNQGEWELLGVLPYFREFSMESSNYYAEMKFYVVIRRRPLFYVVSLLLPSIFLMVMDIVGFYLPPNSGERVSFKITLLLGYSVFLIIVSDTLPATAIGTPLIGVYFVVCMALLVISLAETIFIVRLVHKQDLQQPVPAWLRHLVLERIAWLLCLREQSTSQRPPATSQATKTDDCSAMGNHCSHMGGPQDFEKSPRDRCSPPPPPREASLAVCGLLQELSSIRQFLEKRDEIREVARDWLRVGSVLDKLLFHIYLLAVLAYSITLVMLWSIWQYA
Summary of the method: (§1)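 Transfected HEK293 or CHO cells were exposed for at least 5 min to peptides at 200 nM and 20 μM final, tested in duplicate, in HEPES-buffered physiological saline. Activation was taken as peptide-plus-agonist current over control current ×100, and inhibition as 1 minus that ratio ×100. Each channel's control was its own reference compound.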

α3β4 = target: T2, α3β4 (Homo sapiens, UniProt P30926+P32297); experiment: Ion channel panel (IonWorks Barracuda): α3β4; format: cell-based; conditions: 100% = no change, <100% = inhibition
T2 construct: host or cells: HEK293 or CHO
Summary of the method: as §1

α4β2 = target: T3, α4β2 (Homo sapiens, UniProt P17787+P43681); experiment: Ion channel panel (IonWorks Barracuda): α4β2; format: cell-based; conditions: 100% = no change, <100% = inhibition
T3 construct: host or cells: HEK293 or CHO
Summary of the method: as §1

Cav2.1 = target: T4, Cav2.1 (Homo sapiens, UniProt O00555); experiment: cell-based; conditions: 100% = no change, <100% = inhibition
T4 construct: host or cells: HEK293 or CHO
Summary of the method: as §1

Cav2.2 = target: T5, Cav2.2 (Homo sapiens, UniProt Q00975); experiment: cell-based; conditions: 100% = no change, <100% = inhibition
T5 construct: host or cells: HEK293 or CHO
Summary of the method: as §1

Kv2.1 = target: T6, Kv2.1 (Homo sapiens, UniProt Q14721); experiment: cell-based; conditions: 100% = no change, <100% = inhibition
T6 construct: host or cells: HEK293 or CHO
Summary of the method: as §1

GABA = experiment: Ion channel panel (IonWorks Barracuda): GABA; format: cell-based; conditions: 100% = no change, <100% = inhibition
Summary of the method: as §1

Nav1.5 = Nav1.5 (Homo sapiens, UniProt Q14524); experiment: in vitro; conditions: 100% = no change; for Activity of Nav1.5 with peptide, expressed as a percentage of the reference compound: peptide at 0.2 μM; for Activity of Nav1.5 with peptide (percentage of the reference compound): peptide at 20 μM
Summary of the method: as §1

hERG = hERG (Homo sapiens, UniProt Q12809); experiment: in vitro; conditions: 100% = no change, <100% = inhibition
Summary of the method: as §1

Kir2.1 = target: T7, Kir2.1 (Homo sapiens, UniProt P63252); experiment: Ion channel panel (IonWorks Barracuda): Kir2.1; format: cell-based; conditions: 100% = no change, <100% = inhibition
T7 construct: host or cells: HEK293 or CHO
Summary of the method: as §1

Kv1.1 = target: T8, Kv1.1 (Homo sapiens, UniProt Q09470); experiment: cell-based; format: cell-based; conditions: 100% = no change, <100% = inhibition
T8 construct: host or cells: HEK293 or CHO
Summary of the method: as §1

Kv1.2 = target: T9, Kv1.2 (Homo sapiens, UniProt P16389); experiment: cell-based; format: cell-based; conditions: 100% = no change, <100% = inhibition
T9 construct: host or cells: HEK293 or CHO
Summary of the method: as §1

Kv1.3 = target: T10, Kv1.3 (Homo sapiens, UniProt P22001); experiment: cell-based; format: cell-based; conditions: 100% = no change, <100% = inhibition
T10 construct: host or cells: HEK293 or CHO
Summary of the method: as §1

Nav1.7 = target: T11, Nav1.7 (Homo sapiens, UniProt Q15858); experiment: cell-based; format: cell-based; conditions: 100% = no change; for Activity of Nav1.7 with peptide, expressed as a percentage of the reference compound: peptide at 0.2 μM; for Activity of Nav1.7 with peptide (percentage of the reference compound): peptide at 20 μM
T11 construct: host or cells: HEK293 or CHO

NR2A = target: T12, NR2A (Homo sapiens, UniProt Q12879); experiment: Ion channel panel (IonWorks Barracuda): NR2A; format: cell-based; conditions: 100% = no change, <100% = inhibition
T12 construct: host or cells: HEK293 or CHO
Summary of the method: as §1

NR2B = target: T13, NR2B (Homo sapiens, UniProt Q13224); experiment: Ion channel panel (IonWorks Barracuda): NR2B; format: cell-based; conditions: 100% = no change, <100% = inhibition
T13 construct: host or cells: HEK293 or CHO
Summary of the method: as §1

TRPA1 = target: T14, TRPA1 (Homo sapiens, UniProt O75762); experiment: Ion channel panel (IonWorks Barracuda): TRPA1; format: cell-based; conditions: 100% = no change, <100% = inhibition
T14 construct: host or cells: HEK293 or CHO
Summary of the method: as §1

TRPV1 = target: T15, TRPV1 (Homo sapiens, UniProt Q8NER1); experiment: Ion channel panel (IonWorks Barracuda): TRPV1; format: cell-based; conditions: 100% = no change, <100% = inhibition
T15 construct: host or cells: HEK293 or CHO
Summary of the method: as §1

[1] = first of two Nav1.5 columns (probably TP1)
[2] = second of two Nav1.5 columns (probably TP2)
[3] = first of two Nav1.7 columns (probably TP1)
[4] = second of two Nav1.7 columns (probably TP2)

T11 sequence (Q15858 whole entry): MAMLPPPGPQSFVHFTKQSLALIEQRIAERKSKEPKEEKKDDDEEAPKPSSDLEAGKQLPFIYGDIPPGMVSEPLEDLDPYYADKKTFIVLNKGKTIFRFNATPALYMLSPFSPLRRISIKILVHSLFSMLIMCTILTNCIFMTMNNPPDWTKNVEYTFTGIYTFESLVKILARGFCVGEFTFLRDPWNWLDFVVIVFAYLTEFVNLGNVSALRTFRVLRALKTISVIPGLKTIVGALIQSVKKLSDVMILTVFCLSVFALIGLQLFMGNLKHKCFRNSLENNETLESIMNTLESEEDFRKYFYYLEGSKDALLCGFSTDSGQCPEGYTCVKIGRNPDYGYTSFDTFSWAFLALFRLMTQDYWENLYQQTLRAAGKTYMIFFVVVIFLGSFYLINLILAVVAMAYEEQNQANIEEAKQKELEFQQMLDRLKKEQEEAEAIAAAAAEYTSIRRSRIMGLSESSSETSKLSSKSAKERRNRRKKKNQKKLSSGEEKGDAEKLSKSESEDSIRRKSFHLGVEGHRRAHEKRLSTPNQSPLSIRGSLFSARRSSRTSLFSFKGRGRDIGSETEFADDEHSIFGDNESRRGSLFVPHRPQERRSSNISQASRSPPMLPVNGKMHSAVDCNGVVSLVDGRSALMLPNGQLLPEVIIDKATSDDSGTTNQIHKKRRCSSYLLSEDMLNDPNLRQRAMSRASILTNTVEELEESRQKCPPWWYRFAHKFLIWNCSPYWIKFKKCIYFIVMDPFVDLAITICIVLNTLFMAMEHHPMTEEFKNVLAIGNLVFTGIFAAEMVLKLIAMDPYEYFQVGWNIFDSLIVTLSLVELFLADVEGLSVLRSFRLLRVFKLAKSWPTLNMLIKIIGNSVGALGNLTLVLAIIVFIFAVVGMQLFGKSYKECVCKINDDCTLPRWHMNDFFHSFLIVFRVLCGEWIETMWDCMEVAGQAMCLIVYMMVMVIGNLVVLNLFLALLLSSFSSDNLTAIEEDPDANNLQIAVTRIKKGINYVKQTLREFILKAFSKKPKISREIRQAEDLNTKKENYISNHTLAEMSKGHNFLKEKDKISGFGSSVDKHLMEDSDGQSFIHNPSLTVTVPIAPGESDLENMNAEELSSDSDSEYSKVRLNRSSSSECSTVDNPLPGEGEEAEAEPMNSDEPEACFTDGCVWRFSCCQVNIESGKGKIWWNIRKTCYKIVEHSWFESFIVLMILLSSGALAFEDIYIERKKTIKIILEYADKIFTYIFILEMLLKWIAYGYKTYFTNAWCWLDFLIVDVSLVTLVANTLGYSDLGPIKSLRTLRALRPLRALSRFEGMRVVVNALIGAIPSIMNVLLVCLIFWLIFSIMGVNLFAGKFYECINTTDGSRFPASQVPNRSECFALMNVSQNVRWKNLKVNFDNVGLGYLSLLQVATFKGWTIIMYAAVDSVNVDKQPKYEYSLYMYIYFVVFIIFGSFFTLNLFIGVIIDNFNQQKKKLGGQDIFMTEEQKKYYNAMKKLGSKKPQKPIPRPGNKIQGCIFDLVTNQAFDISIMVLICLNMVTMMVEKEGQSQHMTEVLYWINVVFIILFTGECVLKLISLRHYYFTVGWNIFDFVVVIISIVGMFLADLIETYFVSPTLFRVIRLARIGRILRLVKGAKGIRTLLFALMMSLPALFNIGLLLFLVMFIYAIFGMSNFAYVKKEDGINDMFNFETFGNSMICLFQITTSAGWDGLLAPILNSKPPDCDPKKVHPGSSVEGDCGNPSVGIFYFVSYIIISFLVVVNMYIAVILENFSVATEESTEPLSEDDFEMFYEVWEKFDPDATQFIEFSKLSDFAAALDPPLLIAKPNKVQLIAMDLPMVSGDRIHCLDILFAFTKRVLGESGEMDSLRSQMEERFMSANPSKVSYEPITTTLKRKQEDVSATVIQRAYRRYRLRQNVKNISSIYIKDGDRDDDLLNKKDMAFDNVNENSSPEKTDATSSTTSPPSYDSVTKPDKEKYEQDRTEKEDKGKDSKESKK
Nav1.5, sequence (Q14524 whole entry): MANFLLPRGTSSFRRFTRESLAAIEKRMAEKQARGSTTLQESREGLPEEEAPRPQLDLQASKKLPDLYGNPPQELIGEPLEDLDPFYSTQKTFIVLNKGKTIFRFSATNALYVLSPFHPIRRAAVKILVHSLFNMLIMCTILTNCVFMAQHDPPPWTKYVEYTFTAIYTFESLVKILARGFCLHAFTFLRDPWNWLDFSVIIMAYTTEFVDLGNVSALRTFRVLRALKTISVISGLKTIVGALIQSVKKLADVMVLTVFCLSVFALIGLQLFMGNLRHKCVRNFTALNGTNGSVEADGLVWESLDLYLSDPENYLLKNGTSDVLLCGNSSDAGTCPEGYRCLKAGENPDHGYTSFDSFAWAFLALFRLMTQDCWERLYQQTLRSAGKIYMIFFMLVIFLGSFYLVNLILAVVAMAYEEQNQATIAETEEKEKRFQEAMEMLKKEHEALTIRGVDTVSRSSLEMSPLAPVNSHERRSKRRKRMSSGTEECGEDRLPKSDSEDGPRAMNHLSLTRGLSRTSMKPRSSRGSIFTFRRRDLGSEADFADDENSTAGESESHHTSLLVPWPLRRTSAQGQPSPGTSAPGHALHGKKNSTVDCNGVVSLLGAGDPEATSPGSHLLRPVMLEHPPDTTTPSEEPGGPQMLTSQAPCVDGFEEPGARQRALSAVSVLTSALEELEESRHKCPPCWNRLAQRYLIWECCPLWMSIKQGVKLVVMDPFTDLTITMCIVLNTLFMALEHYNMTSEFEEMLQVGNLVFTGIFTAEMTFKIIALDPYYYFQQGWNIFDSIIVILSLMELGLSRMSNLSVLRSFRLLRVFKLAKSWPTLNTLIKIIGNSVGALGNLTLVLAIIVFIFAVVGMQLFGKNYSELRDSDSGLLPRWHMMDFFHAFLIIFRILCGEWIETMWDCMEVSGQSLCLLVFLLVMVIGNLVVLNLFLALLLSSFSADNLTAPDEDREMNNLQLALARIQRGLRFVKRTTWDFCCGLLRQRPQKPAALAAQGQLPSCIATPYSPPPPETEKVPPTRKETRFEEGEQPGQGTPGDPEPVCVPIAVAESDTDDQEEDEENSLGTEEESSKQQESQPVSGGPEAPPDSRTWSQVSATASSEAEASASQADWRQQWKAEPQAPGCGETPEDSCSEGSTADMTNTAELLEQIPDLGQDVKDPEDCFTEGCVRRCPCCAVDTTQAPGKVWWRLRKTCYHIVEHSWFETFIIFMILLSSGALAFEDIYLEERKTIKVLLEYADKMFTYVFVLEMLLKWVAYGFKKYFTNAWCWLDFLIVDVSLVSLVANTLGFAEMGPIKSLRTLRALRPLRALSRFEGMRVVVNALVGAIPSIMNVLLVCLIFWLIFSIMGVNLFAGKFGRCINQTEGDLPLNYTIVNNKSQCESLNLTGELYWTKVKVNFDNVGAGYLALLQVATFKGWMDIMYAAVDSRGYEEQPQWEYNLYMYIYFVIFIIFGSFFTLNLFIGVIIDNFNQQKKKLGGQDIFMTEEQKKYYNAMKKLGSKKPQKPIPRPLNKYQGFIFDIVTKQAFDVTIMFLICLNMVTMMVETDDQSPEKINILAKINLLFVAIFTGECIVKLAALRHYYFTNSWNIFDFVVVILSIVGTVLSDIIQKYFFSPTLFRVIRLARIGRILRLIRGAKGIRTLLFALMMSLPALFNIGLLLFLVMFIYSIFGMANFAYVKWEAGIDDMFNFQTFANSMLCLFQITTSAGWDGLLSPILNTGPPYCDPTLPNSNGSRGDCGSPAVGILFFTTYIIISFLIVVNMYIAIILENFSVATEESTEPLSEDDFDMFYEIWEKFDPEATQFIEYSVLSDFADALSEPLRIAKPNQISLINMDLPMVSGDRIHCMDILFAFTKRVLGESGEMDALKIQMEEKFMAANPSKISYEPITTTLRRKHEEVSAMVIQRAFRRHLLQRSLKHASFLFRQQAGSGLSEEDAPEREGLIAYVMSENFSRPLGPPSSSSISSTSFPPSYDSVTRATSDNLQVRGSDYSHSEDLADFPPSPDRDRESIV
T3 sequence (P43681 29-627): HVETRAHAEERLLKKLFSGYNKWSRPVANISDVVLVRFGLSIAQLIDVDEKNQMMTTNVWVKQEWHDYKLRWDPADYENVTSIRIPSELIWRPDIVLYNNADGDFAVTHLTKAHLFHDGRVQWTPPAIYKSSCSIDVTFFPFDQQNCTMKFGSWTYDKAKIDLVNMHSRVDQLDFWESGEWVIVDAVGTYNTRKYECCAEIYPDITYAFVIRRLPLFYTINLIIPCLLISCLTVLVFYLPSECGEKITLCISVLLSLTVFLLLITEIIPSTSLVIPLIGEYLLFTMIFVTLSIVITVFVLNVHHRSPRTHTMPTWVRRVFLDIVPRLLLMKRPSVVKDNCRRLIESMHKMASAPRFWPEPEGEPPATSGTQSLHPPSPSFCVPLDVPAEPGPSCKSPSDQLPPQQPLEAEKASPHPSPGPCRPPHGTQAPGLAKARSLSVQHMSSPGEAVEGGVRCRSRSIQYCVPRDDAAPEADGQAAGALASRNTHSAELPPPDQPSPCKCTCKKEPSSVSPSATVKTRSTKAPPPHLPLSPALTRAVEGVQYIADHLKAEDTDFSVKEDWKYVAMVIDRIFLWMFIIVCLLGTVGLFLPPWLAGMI
T3 sequence (P17787 26-502): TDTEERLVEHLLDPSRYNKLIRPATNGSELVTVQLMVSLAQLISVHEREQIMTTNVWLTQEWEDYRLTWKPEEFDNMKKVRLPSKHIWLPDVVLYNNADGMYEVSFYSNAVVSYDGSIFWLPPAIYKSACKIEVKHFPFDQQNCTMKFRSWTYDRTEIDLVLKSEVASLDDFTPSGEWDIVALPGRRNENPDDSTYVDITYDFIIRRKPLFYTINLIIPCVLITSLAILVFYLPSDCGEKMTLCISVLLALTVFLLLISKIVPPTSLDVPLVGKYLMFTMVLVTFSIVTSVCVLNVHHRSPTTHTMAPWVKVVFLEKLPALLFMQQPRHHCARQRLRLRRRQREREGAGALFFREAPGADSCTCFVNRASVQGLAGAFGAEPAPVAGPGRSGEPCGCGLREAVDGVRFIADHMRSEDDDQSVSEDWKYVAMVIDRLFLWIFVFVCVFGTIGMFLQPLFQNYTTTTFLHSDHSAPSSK

36 (GSAQEPVKGPVSTKPGSCPIILIRCAMLNPPNRCLKDTDCPGIKKCCEGSCGMACFVPQ) [compound 36]
Activity of 5HT3a with peptide (percentage of the reference compound) (5HT3a): 83%
Activity of 5HT3a with peptide, expressed as a percentage of the reference compound (5HT3a): 81%
Activity of a3b4 with peptide, expressed as a percentage of the reference compound (α3β4; peptide at 0.2 μM): 95%
Activity of a3b4 with peptide (percentage of the reference compound) (α3β4; peptide at 20 μM): 87%
Activity of a4b2 with peptide, expressed as a percentage of the reference compound (α4β2; peptide at 0.2 μM): 62%
Activity of a4b2 with peptide (percentage of the reference compound) (α4β2; peptide at 20 μM): 57%
Activity of Cav2.1 with peptide, expressed as a percentage of the reference compound (Cav2.1; peptide at 0.2 μM): 96%
Activity of Cav2.1 with peptide (percentage of the reference compound) (Cav2.1; peptide at 20 μM): 102%
Activity of Cav2.2 with peptide, expressed as a percentage of the reference compound (Cav2.2; peptide at 0.2 μM): 114%
Activity of Cav2.2 with peptide (percentage of the reference compound) (Cav2.2; peptide at 20 μM): 87%
Activity of Kv2.1 with peptide, expressed as a percentage of the reference compound (Kv2.1; peptide at 0.2 μM): 104%
Activity of Kv2.1 with peptide (percentage of the reference compound) (Kv2.1; peptide at 20 μM): 92%
Activity of GABA with peptide, expressed as a percentage of the reference compound (GABA; peptide at 0.2 μM): 118%
Activity of GABA with peptide (percentage of the reference compound) (GABA; peptide at 20 μM): 106%
Activity of Nav1.5 with peptide, expressed as a percentage of the reference compound (Nav1.5; [1]): 110%
Activity of Nav1.5 with peptide, expressed as a percentage of the reference compound (Nav1.5; [2]): 109%
Activity of Nav1.5 with peptide (percentage of the reference compound) (Nav1.5; [1]): 107%
Activity of Nav1.5 with peptide (percentage of the reference compound) (Nav1.5; [2]): 112%
Activity of hERG with peptide, expressed as a percentage of the reference compound (hERG; peptide at 0.2 μM): 84%
Activity of hERG with peptide (percentage of the reference compound) (hERG; peptide at 20 μM): 65%
Activity of Kir2.1 with peptide, expressed as a percentage of the reference compound (Kir2.1; peptide at 0.2 μM): 108%
Activity of Kir2.1 with peptide (percentage of the reference compound) (Kir2.1; peptide at 20 μM): 91%
Activity of Kv1.1 with peptide, expressed as a percentage of the reference compound (Kv1.1; peptide at 0.2 μM): 82%
Activity of Kv1.1 with peptide (percentage of the reference compound) (Kv1.1; peptide at 20 μM): 101%
Activity of Kv1.2 with peptide, expressed as a percentage of the reference compound (Kv1.2; peptide at 0.2 μM): 91%
Activity of Kv1.2 with peptide (percentage of the reference compound) (Kv1.2; peptide at 20 μM): 87%
Activity of Kv1.3 with peptide, expressed as a percentage of the reference compound (Kv1.3; peptide at 0.2 μM): 96%
Activity of Kv1.3 with peptide (percentage of the reference compound) (Kv1.3; peptide at 20 μM): 93%
Activity of Nav1.7 with peptide, expressed as a percentage of the reference compound (Nav1.7; [3]): 108%
Activity of Nav1.7 with peptide, expressed as a percentage of the reference compound (Nav1.7; [4]): 118%
Activity of Nav1.7 with peptide (percentage of the reference compound) (Nav1.7; [3]): 91%
Activity of Nav1.7 with peptide (percentage of the reference compound) (Nav1.7; [4]): 71%
Activity of NR2A with peptide, expressed as a percentage of the reference compound (NR2A; peptide at 0.2 μM): 115%
Activity of NR2A with peptide (percentage of the reference compound) (NR2A; peptide at 20 μM): 103%
Activity of NR2B with peptide, expressed as a percentage of the reference compound (NR2B; peptide at 0.2 μM): 109%
Activity of NR2B with peptide (percentage of the reference compound) (NR2B; peptide at 20 μM): 96%
Activity of TRPA1 with peptide, expressed as a percentage of the reference compound (TRPA1; peptide at 0.2 μM): 106%
Activity of TRPA1 with peptide (percentage of the reference compound) (TRPA1; peptide at 20 μM): 92%
Activity of TRPV1 with peptide, expressed as a percentage of the reference compound (TRPV1; peptide at 0.2 μM): 103%
Activity of TRPV1 with peptide (percentage of the reference compound) (TRPV1; peptide at 20 μM): 69%
